Assay results as given in paper PMC2885457.
Read-outs that look alike come from different tables or passages of the source.

Legend:
[1] = molecular target: Giardia lamblia tryptophanyl-tRNA synthetase (Giardia lamblia (strain WB)); assay: SEC
[2] = molecular target: Giardia lamblia tryptophanyl-tRNA synthetase (Giardia lamblia (strain WB)); assay: SEC; remark: listed apart in the source

Substance: Giardia lamblia tryptophanyl-tRNA synthetase (enzyme)
- stoichiometry N [1]: 2
- stoichiometry N [2]: 2
